Experimental data: US20210070876A1

T1: His-tagged human CD73 ECD (human) (UniProt P21589)
T1 sequence: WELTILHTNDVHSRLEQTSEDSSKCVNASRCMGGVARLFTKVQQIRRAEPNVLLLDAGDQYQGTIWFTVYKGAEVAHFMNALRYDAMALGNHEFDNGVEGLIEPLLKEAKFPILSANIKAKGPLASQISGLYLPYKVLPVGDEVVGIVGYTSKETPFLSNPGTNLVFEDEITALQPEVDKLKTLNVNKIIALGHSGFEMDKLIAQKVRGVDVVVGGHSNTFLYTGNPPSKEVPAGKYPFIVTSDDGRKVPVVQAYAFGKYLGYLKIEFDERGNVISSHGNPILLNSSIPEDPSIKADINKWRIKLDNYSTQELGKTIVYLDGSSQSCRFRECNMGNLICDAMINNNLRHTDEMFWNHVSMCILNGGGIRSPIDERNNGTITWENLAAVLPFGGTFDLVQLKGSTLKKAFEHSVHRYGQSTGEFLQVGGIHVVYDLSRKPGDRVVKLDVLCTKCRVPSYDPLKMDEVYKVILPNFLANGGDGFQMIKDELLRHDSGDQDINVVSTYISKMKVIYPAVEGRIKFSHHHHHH

T2: human CD73 ECD fused C-terminally to human IgG1 Fc (human) (UniProt P21589)
T2 sequence: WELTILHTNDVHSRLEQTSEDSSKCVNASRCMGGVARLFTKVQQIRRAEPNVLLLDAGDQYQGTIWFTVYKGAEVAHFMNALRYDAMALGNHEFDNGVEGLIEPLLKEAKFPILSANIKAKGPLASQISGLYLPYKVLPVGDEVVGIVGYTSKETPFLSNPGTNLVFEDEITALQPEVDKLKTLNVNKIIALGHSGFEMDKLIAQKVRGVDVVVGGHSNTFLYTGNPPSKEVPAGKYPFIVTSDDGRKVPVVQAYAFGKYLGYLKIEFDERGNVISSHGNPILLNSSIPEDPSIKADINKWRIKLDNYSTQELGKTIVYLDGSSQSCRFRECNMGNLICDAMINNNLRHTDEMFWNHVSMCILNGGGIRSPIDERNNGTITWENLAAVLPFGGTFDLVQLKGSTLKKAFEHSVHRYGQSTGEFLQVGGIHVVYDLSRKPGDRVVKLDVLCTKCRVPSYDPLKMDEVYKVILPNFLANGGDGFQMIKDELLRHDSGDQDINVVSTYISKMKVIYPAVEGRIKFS


Tests used:
[1] = target: T1, His-tagged human CD73 ECD (human); test: SEC-MALS, mAb:CD73 1:1
[2] = target: T1, His-tagged human CD73 ECD (human); test: SEC-MALS, mAb:CD73 0.1:1
[3] = target: T1, His-tagged human CD73 ECD (human); test: SEC-MALS, mAb:CD73 0.5:1
[4] = target: His-tagged cynomolgus CD73 ECD (cynomolgus monkey (Macaca fascicularis)); test: SPR, mAb captured, His-tagged CD73 ECD injected
[5] = target: T1, His-tagged human CD73 ECD (human); test: SPR, mAb captured, His-tagged CD73 ECD injected
[6] = target: cynomolgus CD73 ECD fused C-terminally to human IgG1 Fc (cynomolgus monkey (Macaca fascicularis); human); test: SPR, Fc-tagged CD73 ECD captured, Fab injected
[7] = target: T2, human CD73 ECD fused C-terminally to human IgG1 Fc (human); test: SPR, Fc-tagged CD73 ECD captured, Fab injected
[8] = target: human CD73 expressed on cells (human) (UniProt P21589); test: cell-based or functional assay; settings: scale: % viable cells compared to untreated cells

Binder	molecular mass of complex, Peak 2 (MW, kDa) [1] [kDa]	molecular mass of complex, Peak 3 (MW, kDa) [1] [kDa]	molecular mass of complex, Peak 4 (MW, kDa) [1] [kDa]	molecular mass of complex, Peak 2 (MW, kDa) [2] [kDa]	molecular mass of complex, Peak 3 (MW, kDa) [2] [kDa]	molecular mass of complex, Peak 4 (MW, kDa) [2] [kDa]	molecular mass of complex, Peak 2 (MW, kDa) [3] [kDa]	molecular mass of complex, Peak 3 (MW, kDa) [3] [kDa]	molecular mass of complex, Peak 4 (MW, kDa) [3] [kDa]	Kd [4] [nM]	koff [4] [s⁻¹]	kon [4] [M⁻¹ s⁻¹]	Kd [5] [nM]	koff [5] [s⁻¹]	kon [5] [M⁻¹ s⁻¹]	Kd [6] [nM]	koff [6] [s⁻¹]	kon [6] [M⁻¹ s⁻¹]	Kd [7] [nM]	koff [7] [s⁻¹]	other results
11E1 analogue (Innate Pharma) (antibody, from another filing, IgG1, V domains shown) VH: EIQLQQSGPELVKPGASVKVSCKASGYAFTSYNMYWVKQSHGKSLEWIGYIDPYNGGTSYNQKFKGKATLTVDKSSSTAYMHLNSLTSEDSAVYYCARGYGNYKAWFAYWGQGTLVTVSA VL: DAVMTQTPKFLLVSAGDRVTITCKASQSVTNDVAWYQQKPGQSPKLLIYYASNRYTGVPDRFTGSGYGTDFTFTISTVQAEDLAVYFCQQDYSSLTFGAGTKLELK	270	511	802	265	704	11800	277	566	3370	0.14	1.3e-05	84000	0.1	5.6e-06	57000						
11E1 analogue Fab fragment (Fab, from another filing, V domains shown) VH: EIQLQQSGPELVKPGASVKVSCKASGYAFTSYNMYWVKQSHGKSLEWIGYIDPYNGGTSYNQKFKGKATLTVDKSSSTAYMHLNSLTSEDSAVYYCARGYGNYKAWFAYWGQGTLVTVSA VL: DAVMTQTPKFLLVSAGDRVTITCKASQSVTNDVAWYQQKPGQSPKLLIYYASNRYTGVPDRFTGSGYGTDFTFTISTVQAEDLAVYFCQQDYSSLTFGAGTKLELK																8.7	0.0028	320000	9.8	0.0028	kon [7]: 290000 M⁻¹ s⁻¹
CPX006 analogue (Corvus) (antibody, from another filing, IgG1, V domains shown) VH: QVQLVQSGAEVEKPGASVKVSCKASGYTFTSYWITWVRQAPGQGLEWMGDIYPGSGNTNYNEKFKTRVTITADKSTSTAYMELSSLRSEDTAVYYCAKEGGLTTEDYALDYWGQGTLVTVSS VL: EIVLTQSPATLSLSPGERATLSCRASKNVSTSGYSYMHWYQQKPGQAPRLLIYLASNLESGIPPRFSGSGYGTDFTLTINNIESEDAAYYFCQHSRELPFTFGQGTKVEIKR	148	246	363	121	236	339	143	245	349	0.33	1.4e-05	28000	0.02	2.4e-06	170000						
CPX006 analogue Fab fragment (Fab, from another filing, V domains shown) VH: QVQLVQSGAEVEKPGASVKVSCKASGYTFTSYWITWVRQAPGQGLEWMGDIYPGSGNTNYNEKFKTRVTITADKSTSTAYMELSSLRSEDTAVYYCAKEGGLTTEDYALDYWGQGTLVTVSS VL: EIVLTQSPATLSLSPGERATLSCRASKNVSTSGYSYMHWYQQKPGQAPRLLIYLASNLESGIPPRFSGSGYGTDFTLTINNIESEDAAYYFCQHSRELPFTFGQGTKVEIKR																71.6	0.00048	6700	80.3	0.00053	kon [7]: 6600 M⁻¹ s⁻¹

More lines, main results first:

molecular mass of complex, Peak 2 (MW, kDa) [1] [kDa]	molecular mass of complex, Peak 3 (MW, kDa) [1] [kDa]	molecular mass of complex, Peak 4 (MW, kDa) [1] [kDa]	molecular mass of complex, Peak 2 (MW, kDa) [2] [kDa]	molecular mass of complex, Peak 3 (MW, kDa) [2] [kDa]	molecular mass of complex, Peak 4 (MW, kDa) [2] [kDa]	molecular mass of complex, Peak 2 (MW, kDa) [3] [kDa]	molecular mass of complex, Peak 3 (MW, kDa) [3] [kDa]	molecular mass of complex, Peak 4 (MW, kDa) [3] [kDa]	Kd [4] [nM]	koff [4] [s⁻¹]	kon [4] [M⁻¹ s⁻¹]	Kd [5] [nM]	koff [5] [s⁻¹]	kon [5] [M⁻¹ s⁻¹]	Kd [6] [nM]	koff [6] [s⁻¹]	kon [6] [M⁻¹ s⁻¹]	Kd [7] [nM]	koff [7] [s⁻¹]	Binder	other results
389	682	1040	194	432	821	870	559	1010	0.06	6.6e-06	140000	0.02	2.5e-06	110000						oleclumab analogue (MEDI9447, Medimmune) (antibody, INN chains, looked up, V domains shown, IgG1-TM) VH: EVQLLESGGGLVQPGGSLRLSCAASGFTFSSYAYSWVRQAPGKGLEWVSAISGSGGRTYYADSVKGRFTISRDNSKNTLYLQMNSLRAEDTAVYYCARLGYGRVDEWGRGTLVTVSS VL: QSVLTQPPSASGTPGQRVTISCSGSLSNIGRNPVNWYQQLPGTAPKLLIYLDNLRLSGVPDRFSGSKSGTSASLAISGLQSEDEADYYCATWDDSHPGWTFGGGTKLTVL	viable MDA-MB-468 cells in the presence of 300 µM AMP (WST-1) [8]: 70 to 80
															0.07	4.3e-05	580000	0.06	3.4e-05	oleclumab analogue Fab fragment (Fab, INN chains, looked up, V domains shown, Fab) VH: EVQLLESGGGLVQPGGSLRLSCAASGFTFSSYAYSWVRQAPGKGLEWVSAISGSGGRTYYADSVKGRFTISRDNSKNTLYLQMNSLRAEDTAVYYCARLGYGRVDEWGRGTLVTVSS VL: QSVLTQPPSASGTPGQRVTISCSGSLSNIGRNPVNWYQQLPGTAPKLLIYLDNLRLSGVPDRFSGSKSGTSASLAISGLQSEDEADYYCATWDDSHPGWTFGGGTKLTVL	kon [7]: 560000 M⁻¹ s⁻¹
